Four molecules from paper PMC12802916 can be followed below.

In the data set the target is T1, ST2/IL-33R Fc chimera (Mus musculus, UniProt P14719 27-332).
T1 sequence: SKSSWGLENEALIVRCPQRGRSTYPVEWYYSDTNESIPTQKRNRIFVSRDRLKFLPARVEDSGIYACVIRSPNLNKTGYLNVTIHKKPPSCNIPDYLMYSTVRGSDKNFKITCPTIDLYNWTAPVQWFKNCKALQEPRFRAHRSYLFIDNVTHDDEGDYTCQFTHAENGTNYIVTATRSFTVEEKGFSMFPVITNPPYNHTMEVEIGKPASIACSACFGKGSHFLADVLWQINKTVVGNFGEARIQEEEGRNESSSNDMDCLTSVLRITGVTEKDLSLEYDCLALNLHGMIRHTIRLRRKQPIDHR
As to the kind of experiment: SPR; SPR (Biacore T200): 295 mM NaCl, 5.4 mM KCl, 0.8 mM MgCl2, 18 mM CaCl2 (printed CaClCl2), 0.05% Tween 20, 20 mM Tris-HCl pH 7.6; temperature not stated. A/C: po. A general note: Surface plasmon resonance follows binding to a sensor surface in real time, without labels.

Numbering of substitutions follows the chain as printed.

B1: B RaptScore round6 2 (ssRNA)
RNA: GGGAGAACUUCGACUUGUAACAAGCUGUUUUGGAACAGCGCAUAACGAACCGUGCAGAGAUCCUC
On to B1, for which the binding signal is -4.91 % of B Round7 3.

B2: B RaptScore round6 3 (ssRNA)
RNA: B1 RNA with C50A
For the molecule B2, the binding signal is -3.28 % of B Round7 3.

B3: B RaptScore round7 3 (ssRNA)
RNA: B1 RNA with A49U, C50U
With B3, the binding signal is -0.82 % of B Round7 3.

B4: B RaptScore round7 1 (ssRNA)
RNA: B1 RNA with A49U
B4: the binding signal was -4.12 % of B Round7 3.
